The results in this text go back to publication PMC12578633.

Test [1] addresses H5 A/Indonesia/05/2005 HA ectodomain (influenza A virus H5N1 A/Indonesia/05/2005).
In test [2] the target is H5 A/Sichuan/26221/2014 HA ectodomain (influenza A virus H5N6 A/Sichuan/26221/2014).
The target of test [3] is H5 A/Victoria/149/2024 HA ectodomain (influenza A virus H5N1 A/Victoria/149/2024).
Test [4] deals with H5 A/Cambodia/2302009/2023 HA ectodomain (influenza A virus H5N1 A/Cambodia/2302009/2023).

B1: 326-366.26 (IgG1) (antibody, V domains shown)
VH: QMQLQESGPGLVKPSGTLSLTCAVSGGSISNSHWWSWVRQSPGKGLEWIGEIYHSGSTYYNPSLKSRLTISVDKSKNQFSLKLTSVTAADTAVYFCARGLGWEQGGYRAFDMWGQGTTVTVSS
VL: EIVMTQSPATLSVSPGERVTLSCRASQSVGSSLAWYQQKPGQAPRLLIYAASTRATGIPARFSGSGSGTEFTLTISSLQSEDFAVYYCQQHYNWPPLTFGGGTKVEIK
In the case of B1, the neutralization IC80, R4ΔPB1 reporter virus H5N1 A/Indonesia/05/2005 in test [1] was found to be 0.009 µg/mL. The neutralization IC80, R4ΔPB1 reporter virus H5N6 A/Sichuan/26221/2014 in test [2] came to 0.008 µg/mL. Further, in test [3], the neutralization IC80, R4ΔPB1 reporter virus H5N1 A/Victoria/149/2024 stood at 0.193 µg/mL. Besides, in test [4], the neutralization IC80, R4ΔPB1 reporter virus H5N1 A/Cambodia/2302009/2023 is greater than 25 µg/mL.

B2: 326-289.74 (IgG1) (antibody, V domains shown)
VH: QVQLVQSGAEVKKPGSSVKVSCKASGGTFSIYTFTWVRQAPGHGLEWMGGILPISGSAKYAQKFLGRVTITADESTSTVYMELSSLRSEDTAIYYCARDPYSNYFYGLDVWGQGTTVTVSS
VL: EIVLTQSPVTLSLSPGERATLSCRASQSVSRFLAWYQQKPGQAPRLLFYDASTRATGIPARFSGTGSGTDFTLTISGLEPEDFAVYYCQQRSNWPPEYSFGQGTKLEIK
B2 displayed a neutralization IC80, R4ΔPB1 reporter virus H5N1 A/Indonesia/05/2005 in test [1] of 0.014 µg/mL. The molecule also yielded a neutralization IC80, R4ΔPB1 reporter virus H5N6 A/Sichuan/26221/2014 in test [2] of 0.006 µg/mL. Also, the neutralization IC80, R4ΔPB1 reporter virus H5N1 A/Victoria/149/2024 in test [3] came to 0.335 µg/mL. The neutralization IC80, R4ΔPB1 reporter virus H5N1 A/Cambodia/2302009/2023 in test [4] was 0.133 µg/mL.
